We go through 1 substance from patent publication US7015023.

In data set [1] the target is GUS-YVAA-HBD fusion protein (beta-glucuronidase, Tyr-Val-Ala-Ala-Gly linker, hormone binding domain of rat glucocorticoid receptor) (UniProt P05804).
In data set [2] the target is GUS alone (beta-glucuronidase) (UniProt P05804).
GUS alone (beta-glucuronidase), sequence (P05804 whole entry, looked up): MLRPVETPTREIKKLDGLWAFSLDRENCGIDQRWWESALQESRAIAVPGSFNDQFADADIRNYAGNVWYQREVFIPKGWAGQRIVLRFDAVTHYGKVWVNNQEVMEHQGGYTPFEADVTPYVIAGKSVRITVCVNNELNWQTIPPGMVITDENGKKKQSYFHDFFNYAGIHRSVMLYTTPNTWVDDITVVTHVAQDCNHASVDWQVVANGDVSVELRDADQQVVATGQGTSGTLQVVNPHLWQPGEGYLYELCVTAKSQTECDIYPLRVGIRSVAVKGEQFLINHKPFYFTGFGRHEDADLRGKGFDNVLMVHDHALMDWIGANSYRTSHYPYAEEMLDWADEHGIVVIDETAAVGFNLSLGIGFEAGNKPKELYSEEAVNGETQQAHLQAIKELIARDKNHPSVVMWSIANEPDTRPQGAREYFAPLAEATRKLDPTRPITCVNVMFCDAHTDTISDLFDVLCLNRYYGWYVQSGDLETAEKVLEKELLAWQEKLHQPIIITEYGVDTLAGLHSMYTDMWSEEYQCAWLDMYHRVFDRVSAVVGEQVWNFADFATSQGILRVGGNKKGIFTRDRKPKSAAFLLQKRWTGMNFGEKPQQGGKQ

GUS-YVAA-HBD fusion protein (beta-glucuronidase, Tyr-Val-Ala-Ala-Gly linker, hormone binding domain of rat glucocorticoid receptor), sequence (P05804 other isoform, or with tags, fused parts or gaps): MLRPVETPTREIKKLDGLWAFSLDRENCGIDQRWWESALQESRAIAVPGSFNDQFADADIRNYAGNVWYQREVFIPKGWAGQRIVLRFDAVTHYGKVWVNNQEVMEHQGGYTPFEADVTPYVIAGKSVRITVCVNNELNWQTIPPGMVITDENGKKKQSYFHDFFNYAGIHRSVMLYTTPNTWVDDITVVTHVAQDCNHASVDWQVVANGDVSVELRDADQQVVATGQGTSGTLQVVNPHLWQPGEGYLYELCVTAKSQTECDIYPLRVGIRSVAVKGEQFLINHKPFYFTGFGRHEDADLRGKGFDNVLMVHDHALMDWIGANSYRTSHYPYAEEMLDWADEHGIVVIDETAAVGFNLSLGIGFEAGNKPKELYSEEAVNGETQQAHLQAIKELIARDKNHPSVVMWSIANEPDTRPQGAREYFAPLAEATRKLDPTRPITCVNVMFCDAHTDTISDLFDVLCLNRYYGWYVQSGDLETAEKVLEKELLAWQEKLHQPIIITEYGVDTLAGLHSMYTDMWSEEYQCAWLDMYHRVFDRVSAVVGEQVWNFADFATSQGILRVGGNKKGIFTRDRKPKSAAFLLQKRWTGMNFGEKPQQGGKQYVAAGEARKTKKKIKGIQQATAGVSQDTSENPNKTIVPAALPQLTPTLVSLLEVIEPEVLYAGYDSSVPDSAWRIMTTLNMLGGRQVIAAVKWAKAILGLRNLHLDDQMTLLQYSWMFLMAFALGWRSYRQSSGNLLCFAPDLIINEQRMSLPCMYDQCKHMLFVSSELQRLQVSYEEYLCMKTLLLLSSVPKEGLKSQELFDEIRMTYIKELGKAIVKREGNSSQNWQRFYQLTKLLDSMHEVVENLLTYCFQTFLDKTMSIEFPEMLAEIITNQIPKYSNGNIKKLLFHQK

For the substance purified caspase-1, in data set [1], the “GUS activity of in vitro translated fusion after addition of caspase-1” value was “no detectable increase in GUS activity is observed” and the “proteolytic cleavage, SDS-PAGE autoradiogram of 35S-labelled protein” value is given as “no obvious proteolysis was detected by caspase-1 was observed with either the P1 linker mutant fusion or the GUS alone control”. Besides, the “proteolytic cleavage, SDS-PAGE autoradiogram of 35S-labelled protein” value in data set [2] was “no obvious proteolysis was detected by caspase-1 was observed with either the P1 linker mutant fusion or the GUS alone control”.
